Tests used:
C5aR2 = biological target: T1, C5aR2 (Homo sapiens, UniProt Q9P296); experiment: BRET β-arrestin […] recruitment to C5aR2 in transfected HEK293 cells (partial agonist); assay type: cell-based
T1 construct: human C5aR2-Venus

[1] = biological target: human C3aR of human monocyte-derived macrophages (HMDMs) (human (endogenous in HMDMs)) (UniProt Q16581)
[2] = biological target: human C3aR on Chinese hamster ovary cells stably expressing C3aR (CHO-C3aR) (human) (UniProt Q16581)
human C3aR on Chinese hamster ovary cells stably expressing C3aR (CHO-C3aR) (human), sequence (Q16581 whole entry): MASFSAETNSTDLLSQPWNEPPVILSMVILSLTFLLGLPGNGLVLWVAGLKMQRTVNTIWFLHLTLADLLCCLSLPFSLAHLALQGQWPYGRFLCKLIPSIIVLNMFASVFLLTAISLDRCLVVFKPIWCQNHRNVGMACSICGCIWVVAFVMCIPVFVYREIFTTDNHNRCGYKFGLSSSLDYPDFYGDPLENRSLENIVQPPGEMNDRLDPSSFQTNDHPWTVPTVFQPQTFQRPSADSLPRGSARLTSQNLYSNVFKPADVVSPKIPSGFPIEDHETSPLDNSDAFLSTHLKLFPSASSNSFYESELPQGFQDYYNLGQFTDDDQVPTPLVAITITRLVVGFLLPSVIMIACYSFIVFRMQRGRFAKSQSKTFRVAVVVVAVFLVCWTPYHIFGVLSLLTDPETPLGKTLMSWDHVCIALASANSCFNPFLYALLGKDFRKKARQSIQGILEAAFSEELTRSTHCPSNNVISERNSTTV

purified human C3a, sequence (P01024 672-748): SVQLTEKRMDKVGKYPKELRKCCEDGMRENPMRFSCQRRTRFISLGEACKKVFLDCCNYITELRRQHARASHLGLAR
T1 sequence (Q9P296 whole entry): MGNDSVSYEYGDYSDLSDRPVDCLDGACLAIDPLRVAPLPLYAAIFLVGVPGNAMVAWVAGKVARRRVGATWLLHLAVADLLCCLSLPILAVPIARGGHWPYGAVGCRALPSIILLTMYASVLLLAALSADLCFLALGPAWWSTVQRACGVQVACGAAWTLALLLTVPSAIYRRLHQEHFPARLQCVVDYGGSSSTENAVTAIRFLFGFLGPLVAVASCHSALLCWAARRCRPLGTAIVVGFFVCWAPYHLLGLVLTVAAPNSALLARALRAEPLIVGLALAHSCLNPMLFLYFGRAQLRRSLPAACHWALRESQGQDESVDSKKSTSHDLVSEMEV
human C3aR of human monocyte-derived macrophages (HMDMs) (human (endogenous in HMDMs)), sequence (Q16581 whole entry): as the sequence (Q16581 whole entry) above

Compound | EC50 (C5aR2) | phosphorylation of ERK1/2 in HMDMs (AlphaLISA, 10 min), EC50 [1] | phosphorylation of ERK1/2 in CHO-C3aR cells (AlphaLISA, 10 min), EC50 [2]
N=C(N)NCCC[C@H](NC(=O)COCC(c1ccccc1)c1ccccc1)C(=O)O [SB290157] | 16.1 µM |  | 
purified human C3a (from UniProt P01024 672-748) (ligand) |  | 0.21 nM | 0.39 nM

— article PMC7859635, “The “C3aR Antagonist” SB290157 is a Partial C5aR2 Agonist” (Frontiers in Pharmacology, 2021)
